# Test results published in patent US20240084003A1 (SIMCERE ZAIMING PHARMACEUTICAL, published 2024).
# Changes are numbered by the printed parent chain.
# T1: murine CD22 protein (ACROBiosystems, SI2-M52Ha) (murine, UniProt P35329 22-708)
# T1 construct: extracellular domain; also called murine CD22-ECD; murine CD22-ECD-His
# T1 sequence (looked up): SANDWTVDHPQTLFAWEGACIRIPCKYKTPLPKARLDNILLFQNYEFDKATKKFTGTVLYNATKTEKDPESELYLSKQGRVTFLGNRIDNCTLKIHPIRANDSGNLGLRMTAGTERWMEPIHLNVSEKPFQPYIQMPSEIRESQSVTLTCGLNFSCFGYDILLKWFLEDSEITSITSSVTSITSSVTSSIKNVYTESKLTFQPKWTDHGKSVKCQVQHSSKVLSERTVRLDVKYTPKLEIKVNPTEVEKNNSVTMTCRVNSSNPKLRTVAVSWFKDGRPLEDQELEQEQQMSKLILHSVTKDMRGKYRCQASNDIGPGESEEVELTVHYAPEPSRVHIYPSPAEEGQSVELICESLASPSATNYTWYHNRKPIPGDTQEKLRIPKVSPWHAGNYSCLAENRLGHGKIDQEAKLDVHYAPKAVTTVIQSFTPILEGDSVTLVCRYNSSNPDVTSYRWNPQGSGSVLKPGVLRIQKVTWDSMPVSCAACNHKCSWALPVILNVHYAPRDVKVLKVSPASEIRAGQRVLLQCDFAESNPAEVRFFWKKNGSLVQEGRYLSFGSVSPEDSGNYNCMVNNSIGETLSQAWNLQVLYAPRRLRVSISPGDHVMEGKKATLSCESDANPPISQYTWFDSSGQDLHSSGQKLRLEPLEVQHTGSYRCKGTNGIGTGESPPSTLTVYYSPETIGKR
# T2: monkey CD22 on HEK293T-monkey CD22 cells (monkey)
# T2 construct: full-length entry expressed on stably transfected HEK293T cells
# T2 chain: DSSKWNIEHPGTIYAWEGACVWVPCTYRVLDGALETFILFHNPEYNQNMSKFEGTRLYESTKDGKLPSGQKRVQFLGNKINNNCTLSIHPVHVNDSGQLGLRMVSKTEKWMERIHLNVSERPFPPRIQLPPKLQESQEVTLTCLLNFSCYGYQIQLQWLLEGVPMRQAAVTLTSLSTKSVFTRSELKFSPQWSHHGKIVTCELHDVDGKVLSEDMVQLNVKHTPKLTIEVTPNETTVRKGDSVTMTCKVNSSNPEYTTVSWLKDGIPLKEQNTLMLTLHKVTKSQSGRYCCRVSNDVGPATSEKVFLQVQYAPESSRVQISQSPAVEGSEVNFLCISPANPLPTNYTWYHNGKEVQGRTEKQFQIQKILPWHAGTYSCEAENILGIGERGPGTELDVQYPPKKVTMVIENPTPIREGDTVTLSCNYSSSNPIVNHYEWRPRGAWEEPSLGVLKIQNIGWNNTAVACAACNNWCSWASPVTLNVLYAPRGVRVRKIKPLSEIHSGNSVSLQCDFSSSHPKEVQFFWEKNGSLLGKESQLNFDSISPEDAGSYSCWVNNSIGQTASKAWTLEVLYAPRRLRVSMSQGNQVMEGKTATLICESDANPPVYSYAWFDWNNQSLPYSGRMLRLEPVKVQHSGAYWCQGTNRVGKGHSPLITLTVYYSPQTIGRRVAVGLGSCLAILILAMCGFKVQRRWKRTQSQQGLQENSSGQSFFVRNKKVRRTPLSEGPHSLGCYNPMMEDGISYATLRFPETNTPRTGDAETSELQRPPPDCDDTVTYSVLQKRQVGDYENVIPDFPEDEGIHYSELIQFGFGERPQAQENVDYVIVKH
# B1: F1.280.1 (antibody, human IgG1, kappa, V domains shown)
# VH: QIQLVQSGPELKKPGETVKISCKASGYTFTTYGMSWVKQTPGKGLTWMGWINTDSGVPTYADDFKRRFAFSLEASATTAYLQINNLKNEDTATYFCARGGPDYWGQGTTLTVSS
# VL: DILLTQSPATLSVTPGETVSLSCRASQSIYKNLHWYHQKSHRSPRLLIKYASDSISGIPSRFTGSGSGTNFTLSINSVKPEDEGIYYCLQGYIVPLTFGAGTKLELKR
# notes: Human-murine chimeric IgG1, kappa
# B2: F1.245.2 (antibody, human IgG1, kappa, V domains shown)
# VH: EVQLQQSGAELVKPGASVKLSCTGSGFNIKDYYIHWVKQRTEQGLEWMGRIDPEDGETEYAPKFQDEATITSDTSSNTAYLQLSSLTYEDTAVYYCAREAAGYFYRGSSYGYFDVWGTGTTVTVSS
# VL: DFQMTQTTSFLSASLGDRVTISCSASQDISNYLNWYQQKPDGTVKLLIYYTSSLHSGVPSRFSGSGSGTDYSLTISNLEPEDIATYYCQQYSMLPYTFGGGTKLEMER
# notes: as for B1
# B3: F2.70.2 (antibody, human IgG1, lambda, V domains shown)
# VH: EVQLVESGGGLVKPGGSLKLSCAASGFTFSDYGMNWFRQAPEKGLEWVAYISRGSHTIYYADTVKGRFTISRDNAKNTLFLQMTSLRSNDTAMYYCVRMAGYYAMDYWGQGTSVTVSS
# VL: QLVLTQSSSASFSLGASAKLTCTLSSQHSSYIIEWYQQQPLKPPKYVMELKKDGSHSTGDGIPDRFSGSSSGADRYLSISNIQPEDEAIYICGVGDTIKEQFVYVFGGGTKVTVLG
# notes: Human-murine chimeric IgG1, lambda
# B4: F2.55.1 (antibody, human IgG1, lambda, V domains shown)
# VH: QVTLKESGPGILQPSQTLSLTCSFSGFSLSTFPLGVGWIRQPSGKGLEWLAHVWWNDDDYYNPALKSRLTISKDTSNTRVFLSVASVDTAETATYYCARLNWDRWYFDVWGTGTTVTVSS
# VL: QLVLTQSSSASFSLGASAKLTCTLSSQHSAYTVEWYQQQPLKPPKYVMELKKDGSHSTGDGIPDRFSGSSSGADRYLSISNIQPEDEAIYICGVGDTVKEQFVFGGGTKVTVLG
# notes: as for B3
# B5: F1.257.3 (antibody, human IgG1, kappa, V domains shown)
# VH: QVQLQQSGPELARPGASVKLSCKASGYTFTSYGISWVKQRTGQDLEWIGEIYPKLGTTYYNEKFKDKATLTTDRSSSTAYMALRSLTSEDSAVYFCACPHYYATRGGDYWGQGTTLTVSS
# VL: EIVLTQSPATLSVTPGDSVTFSCRASQSISNHLHWYQQKSHESPRLLIRYASQSISGIPSRFSGSGSGTDFTLSLSSVETEDFGVYFCQQSHSWPYTFGGGTKLEIAR
# notes: as for B1
# B6: F2.205.9 (antibody, human IgG1, lambda, V domains shown)
# VH: QVTLKESGPGILQPSQTLSLTCSFSGFSLSTSGMGVGWIRQPSGKGLEWLAHIWWDDDEYYNPALKSRLTISKDTSKNQVFLKIANVDTADTATYYCARISIPYGYYDWFFDVWGTGTTVTVSA
# VL: QAVVTQESALTTSPGETVTLTCRSSTGAVTTRNYANWVQEKPDHLFTGLIGGTNNRAPGVPARFSGSLIGDKAALTITGAQTEDEAIYFCALWYSNHFIFGSGTKVTVLG
# notes: as for B3
# B7: F1.200.11 (antibody, human IgG1, kappa, V domains shown)
# VH: QNQLVQSGPELKKPGETVKISCKASGYTFTTAGMQWVQKMPGKGFKWIGWINTLSGEPKYAEDFKGRFAFSLETSATTAYLQISNLKNEDTATYFCARAYYSNLYWYFDVWGTGTTVTVSS
# VL: DIVMTQSQKFMSTTVGDRVTITCKASQNVVTAVAWYQQKPGQSPKVLIYSASNRYSGVPDRFTGSGSGTDFTLTISNMHSEDLANYFCHQYSSYPFTFGSGTKLEIKR
# notes: as for B1
# B8: F1.17.1 (antibody, human IgG1, kappa, V domains shown)
# VH: QVQLKESGPGLVAPSQSLSITCTVSGFSLSRYTVHWVRQPPGKGLEWLGMIWGGGSTDYNSALKSRLSISKDNSKSQVFLKMNSLQTDDTAMYYCARPHDFDAGGFAYWGQGTLVTVSA
# VL: QIVLTQSPAILSTSPGEKVTMTCSASSRVNYMYWYQQKPGSSPRLLIYDTSNLASGVPVRFSGSGSGTSYSLTISRMEAEDAATYYCQQWTSYPLTFGAGTKLELKR
# notes: as for B1
# B9: F1.105.11 (antibody, human IgG1, kappa, V domains shown)
# VH: EVQLQQSGPVLVKPGASVKMSCKASGYTFSDYFMNWVKQSHGKSLEWIGIINSYSGGTSYNQKFKGKATLTVDKSSSTAYMELNSLTSEDSAVYYCARWMDYWGQGTSVTVSS
# VL: DVQITQSPSYLAASPGETITINCRTSESISKHLAWYQEKPGKTNKLLIYSGSTLQSGIPSRFSGSGSGTDFTLTISSLEPEDFAMYYCQQHNEYPWTFGGGTKLEIKR
# notes: as for B1
# B10: F1.224.1 (antibody, human IgG1, kappa, V domains shown)
# VH: EVLLHQSGPELVKPGASVKISCKASGYTFTDFNMDWVRQRHGQSLEWIGDVNPNNGGTIYNQKFKGKATLTVDKSSSTVYMDLRSLTSDDTAVYYCVRLGTSDYGEAWFISWGQGTVVTVSA
# VL: DIVLTQSPASLAVSLGQRATISCRASQSVSTPRYSFMHWYQQKPGQPPKLLIKYASNLESGFPARFTGSGSGTDFTLNIHPVEEEDTAAYYCQQSWAIPWTFGGGTKLEIKR
# notes: as for B1
# B11: F1.216.2 (antibody, human IgG1, kappa, V domains shown)
# VH: QVQLQQSGPEVVRPGASVKISCKASGYAFSSSWMNWMKQRPGKALEWIGRIYPGDGDTNYSGEFKVKATLTADKSSSTAYMQLSSLTSEDSAVYFCAREGSYYSNPWYFDYWGQGTTLTVSS
# VL: DVLVTQTPLSLPVSLGDQASISCRSSQSIVQSNGDTYLEWYLQKPGQSPKLLIYKVSNRFSGVPDRFSGSGSGTDFTLKISRVEAEDLGVYYCFQGSHVPFTFGSGTKLEIKR
# notes: as for B1
# B12: HA22-hIgG1 (antibody, V domains shown)
# VH: EVQLVESGGGLVKPGGSLKLSCAASGFAFSIYDMSWVRQTPEKCLEWVAYISSGGGTTYYPDTVKGRFTISRDNAKNTLYLQMSSLKSEDTAMYYCARHSGYGTHWGVLFAYWGQGTLVTVSA
# VL: DIQMTQTTSSLSASLGDRVTISCRASQDISNYLNWYQQKPDGTVKLLIYYTSILHSGVPSRFSGSGSGTDYSLTISNLEQEDFATYFCQQGNTLPWTFGCGTKLEIKR
# B13: HA22-hIgG1 (antibody, V domains shown)
# VH: B12 VH
# VL: B12 VL
# B14: F1.120.15 (antibody, human IgG1, kappa, V domains shown)
# VH: QVQLQQSGPELVKPGASVKISCKASGNAFSNSWMNWVKQRPGKGLEWIGRVYSEDGDTQYNGKFRDKATLTADRSTSTAYMQLSSLTSEDSAVYFCARWLIYYGTYGAMDYWGQGTSVTVSS
# VL: B12 VL with S30N, Q37H, Y50F, I53R, L54P, H55Y, F83I, C100G
# notes: as for B1
# Tests used:
# [1] = target: T1, murine CD22 protein (ACROBiosystems, …); assay: ELISA, murine CD22-ECD-His coated
# Outline: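 Coat 2 μg/mL CD22 in PBS, overnight 4° C; block PBS/2% BSA 2 h RT. Ab 2 h 37° C; HRP anti-species secondary 2 h 37° C. TMB 30 min RT, stop 1.0 N HCl.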
# [2] = target: T2, monkey CD22 on HEK293T-monkey CD22 cells; assay: FACS, HEK293T-monkey CD22 cells
# Procedure: For suspension cell Raji, the medium supernatant was directly centrifuged and discarded, and the cell pellet was washed 2 times with PBS. After counting the cells in the previous step, the cell pellet was resuspended with [PBS+2% (w/w) BSA] blocking solution to 2×10⁶ cells/ml, and added to a 96-well FACS reaction plate at 50 μl/well, and then the chimeric antibody test sample was added at 50 μl/well, and incubated on ice for 2 hours. The mixture was centrifuged and washed 3 times with PBS buffer, Alexa Flour 488-labeled secondary antibody (purchased from Invitrogen, catalog number: A-11013) was added at 50 μl/well, and incubated on ice for 1 hour. The obtained mixture was centrifuged and washed 5 times with PBS, and FACS (FACS Canto™, purchased from BD Company) was used for detection and result analysis. Data analysis was performed by software (CellQuest) to obtain the mean fluorescence density (MFI)of the cells. And then software (GraphPad Prism8) was used for analysis, data fitting, and EC50 value calculation. […] The same method was used to detect the binding of the chimeric antibodies to endogenous CD22-negative cell MoLT4 cells (purchased from ATCC, CRL-1582) and CHO-K1 cells.
# HEK293T-monkey CD22 cells were subjected to FACS detection and data analysis according to the method in Example 5.2.
Binder,binding result [1],EC50 [2] [nM],Maximum mean fluorescence intensity [2] [MFI]
B1,no binding (tested: 100 nM),–,–
B2,no binding (tested: 100 nM),–,–
B3,no binding (tested: 100 nM),–,–
B4,no binding (tested: 100 nM),–,–
B5,no binding (tested: 100 nM),–,–
B6,no binding (tested: 100 nM),–,–
B7,no binding (tested: 100 nM),–,–
B8,no binding (tested: 100 nM),–,–
B9,no binding (tested: 100 nM),–,–
B10,no binding (tested: 100 nM),–,–
B11,no binding (tested: 100 nM),–,–
B12,no binding (tested: 100 nM),–,–
B13,–,0.91,17100
B14,no binding (tested: 100 nM),–,–
